Consider 2 substances from article PMC11734722.

The target of experiment [1] is α-synuclein monomer (not stated (mouse or human recombinant monomer bought)) (UniProt O55042). Description: MST.
For experiment [2], the target named is β-synuclein (β-syn) peptide, 36 to 45 amino acids, all D type. In words: ITC. In general terms: Isothermal titration calorimetry measures the heat released or taken up as one component is titrated into another.

pKd: −log10 of the molar value.

A word on the pKd: it is −log10 of the Kd, conventionally taken in molar units. Turning to “α-synuclein monomer (from UniProt O55042 1-140) (natural protein)”, in experiment [1], the pKd is 4.36.

Consider “α-synuclein preformed fibrils (α-syn PFF) (from UniProt O55042 1-140) (natural protein)”, for which, in experiment [2], the pKd was 6.41.
